Experimental data as given in US20030092616A1, “STAT6 activation gene” (priority 2001, published 2003).

B1: 69 (nucleic acid, listed as Homo sapiens)
chain: AGTGTTTGGGTTTCTTCGCGGCTGCTCAAGATGAACCGACTCTTCGGGAAAGCGAAACCCAAGGCTCCGCCGCCCAGCCTGACTGACTGCATTGGCACGGTGGACAGTAGAGCAGAATCCATTGACAAGAAGATTTCTCGATTGGATGCTGAGCTAGTGAAGTATAAGGATCAGATCAAGAAGATGAGAGAGGGTCCTGCAAAGAATATGGTCAAGCAGAAAGCCTTGCGAGTTTTAAAGCAAAAGAGGATGTATGAGCAGCAGCGGGACAATCTTGCCCAACAGTCATTCAACATGGAACAAGCCAATTATACCATCCAGTCTTTGAAGGACACCAAGACCACGGTTGATGCTATGAAACTGGGAGTAAAGGAAATGAAGAAGGCATACAAGCAAGTGAAGATCGACCAGATTGAGGATTTACAAGACCAGCTAGAGGATATGATGGAAGATGCAAATGAAATCCAAGAAGCACTGAGTCGCAGTTATGGCACCCCAGAACTGGATGAAGATGATTTAGAAGCAGAGTTGGATGCACTAGGTGATGAGCTTCTGGCTGATGAAGACAGTTCTTATTTGGATGAGGCAGCATCTGCACCTGCAATTCCAGAAGGTGTTCCCACTGATACAAAAAACAAGGATGGAGTTCTGGTGGATGAATTTGGATTGCCACAGATCCCTGCTTCATAGATTTGCATCATTCAAGCATATCTTGTAAAACAAACACATATTATGGGACTAGGAAATATTTATCTTTCCAAATTTGCCATAACAGATTTAGGTTTCTTTCCTTTCTTTGAAGGAAAGTTTAATTACATTGCTCTTTTATTTTTTCCATTAAGAGACTCATTGCTTGGGAAATGCTTTCTTCGTACTAAAATTTGATTCCTTTTTTTCTTATGAAAAACGAACTCAGTTTAAAAGTATTTTTAGCTCGTATGACTTGTTTTCATTCATTAATAATAATTTGAAATAAAACTAAGGAAATGGAATCTTAAAAGTCTATGACAGTGTAACTCTACAGTCTCAAAATGACCTGATAAATTGATAAGACAAAGATGAGATTATTGGGGCTGTTCATATTATGATTCAGAATCATTTTCTATTGTGGTATTATAGGTTGGTTAAAGTGATGGCCTTTTTGATGGGTTTTGTTGTGTCTTGTGAACAAGTCGTTACTGTGTCCATTATTGGAATGGAATTATCACTACTGTATCATGAGTGGGTATTTTGATTCTATGGTTCCCTCAGTATTACATCTTGACTTGTAATCAATTATGAATATTTCTTGATATTTAATGTATAGGACATTTATTTATACTCAATAAATATTTTTCAAAAGG
modifications: CDS (31)..(687)
B2: 261 (nucleic acid, listed as Homo sapiens)
chain: AGTGCGCGAAGATGCGAAAGGTGGTTTTGATCACCGGGGCTAGCAGTGGCATTGGCCTGGCCCTCTGCAAGCGGCTGCTGGCGGAAGATGATGAGCTTCATCTGTGTTTGGCGTGCAGGAACATGAGCAAGGCAGAAGCTGTCTGTGCTGCTCTGCTGGCCTCTCACCCCACTGCTGAGGTCACCATTGTCCAGGTGGATGTCAGCAACCTGCAGTCGGTCTTCCGGGCCTCCAAGGAACTTAAGCAAAGGTTTCAGAGATTAGACTGTATATATCTAAATGCTGGGATCATGCCTAATCCACAACTAAATATCAAAGCACTTTTCTTTGGCCTCTTTTCAAGAAAAGTGATTCATATGTTCTCCACAGCTGAAGGCCTGCTGACCCAGGGTGATAAGATCACTGCTGATGGACTTCAGGAGGTGTTTGAGACCAATGTCTTTGGCCATTTTATCCTGATTCGGGAACTGGAGCCTCTCCTCTGTCACAGTGACAATCCATCTCAGCTCATCTGGACATCATCTCGCAGTGCAAGGAAATCTAATTTCAGCCTCGAGGACTTCCAGCACAGCAAAGGCAAGGAACCCTACAGCTCTTCCAAATATGCCACTGACCTTTTGAGTGTGGCTTTGAACAGGAACTTCAACCAGCAGGGTCTCTATTCCAATGTGGCCTGTCCAGGTACAGCATTGACCAATTTGACATATGGAATTCTGCCTCCGTTTATATGGACGCTGTTGATGCCGGCAATATTGCTACTTCGCTTTTTTGCAAATGCATTCACTTTGACACCATATAATGGAACAGAAGCTCTGGTATGGCTTTTCCACCAAAAGCCTGAATCTCTCAATCCTCTGATCAAATATCTGAGTGCCACCACTGGCTTTGGAAGAAATTATATTATGACCCAGAAGATGGACCTAGATGAAGACACTGCTGAAAAATTTTATCAAAAGTTACTGGAACTGGAAAAGCACATTAGGGTCACTATTCAAAAAACAGATAATCAGGCCAGGCTCAGTGGCTCATGCCTATAATTCCAGCACTTTGGGAGGCCAAGGCAGAAGGATCACTTGAGACCAGGAGTTCAAGACCAGCCTGAGAAACATAGTGAGCCCTTGTCTCTACAAAAAGAAATAAAAATAATAGCTGGGTGTGGTGGCATGCGCATGTAGTCCCAGCTACTCAGAAGGATGAGGTGGGAGGATCTCTTGAGGCTGGGAGGCAGAGGTTGCAGTGAGCTGAGATTGTGCCACTGCACTCCAGCCTGGGTGACAGCGAGACCCTGTCTCAAAATATGTATATATTTAATATATATATAAAACCAGAGCTGACAATGACACTCTGGAACATTGCATACCTTCTGTACATTCTGGGGTACATGGATTTCTACTGAGTTGGATAATATGCATTTGTAATAAACTATGAACTATG
modifications: CDS (12)..(1034)
B3: 275 (nucleic acid, listed as Homo sapiens)
chain: GCAGACCCCCATCATGGGCAGCCAGAGCTCCAAGGCTCCCCGGGGCGACGTGACCGCCGAGGAGGCAGCAGGCGCTTCCCCCGCGAAGGCCAACGGCCAGGAGAATGGCCACGTGAAAAGCAATGGAGACTTATCCCCCAAGGGTGAAGGGGAGTCGCCCCCTGTGAACGGAACAGATGAGGCAGCCGGGGCCACTGGCGATGCCATCGAGCCAGCACCCCCTAGCCAGGGTGCTGAGGCCAAGGGGGAGGTCCCCCCCAAGGAGACCCCCAAGAAGAAGAAGAAATTCTCTTTCAAGAAGCCTTTCAAATTGAGCGGCCTGTCCTTCAAGAGAAATCGGAAGGAGGGTGGGGGTGATTCTTCTGCCTCCTCACCCACAGAGGAAGAGCAGGAGCAGGGGGAGATCGGTGCCTGCAGCGACGAGGGCACTGCTCAGGAAGGGAAGGCCGCAGCCACCCCTGAGAGCCAGGAACCCCAGGCCAAGGGGGCAGAGGCTAGTGCAGCCTCAGAAGAAGAGGCAGGGCCCCAGGCTACAGAGCCATCCACTCCCTCGGGGCCGGAGAGTGGCCCTACACCAGCCAGCGCTGAGCAGAATGAGTAGCTAGGTAGGGGCAGGTGGGTGATCTCTAAGCTGCAAAAACTGTGCTGTCCTTGTGAGGTCACTGCCTGGACCTGGTGCCCTGGCTGCCTTCCTGTGCCCAGAAAGGAAGGGGCTATTGCCTCCTCCCAGCCACGTTCCCTTTCCTCCTCTCCCTCCTGTGGATTCTCCCATCAGCCATCTGGTTCTCCTCTTAAGGCCAGTTGAAGATGGTCCCTTACAGCTTCCCAAGTTAGGTTAGTGATGTGAAATGCTCCTGTCCCTGGCCCTACCTCCTTCCCTGTCCCCACCCCTGCATAAGGCAGTTGTTGGTTTTCTTCCCCAATTCTTTTCCAAGTAGGTTTTGTTTACCCTACTCCCCAAATCCCTGAGCCAGAAGTGGGGTGCTTATACTCCCAAACCTTGAGTGTCCAGCCTTCCCCTGTTGTTTTTAGTCTCTTGTGCTGTGCCTAGTGGCACCTGGGCTGGGGAGGACACTGCCCCGTCTAGGTTTTTATAAATGTCTTACTCAAGTTCAAACCTCCAGCCTGTGAATCAACTGTGTCTCTTTTTTGACTTGGTAAGCAAGTATTAGGCTTTGGGGTGGGGGGAGGTCTGTAATGTGAAACAACTTCTTGTCTTTTTTTCTCCCACTGTTGTAAATAACTTTTAATGGCCAAACCCCAGATTTGTACTTTTTTTTTTTTTCTAACTGCTAAAACCATTCTCTTCCACCTGGTTTTACTGTAACATTTGG
modifications: CDS (14)..(598)
B4: 291 (nucleic acid, listed as Homo sapiens)
chain: CGCCATCCCTGACCCATGGCGCTGAAGAGGATTCAGAAAGAATTGAGTGATCTACAGCGCGATCCACCTGCTCACTGTTCAGCTGGACCTGTGGGAGATGACTTGTTCCACTGGCAAGCCACTATTATGGGGCCTCCTGATAGCGCATATCAAGGTGGAGTCTTCTTTCTCACTGTACATTTTCCGACAGATTATCCTTTTAAACCACCAAAGATTGCTTTCACAACAAAAATTTACCATCCAAACATAAACAGTAATGGAAGTATTTGTCTCGATATTCTGAGGTCACAATGGTCACCAGCTCTGACTGTATCAAAAGTTTTATTGTCCATATGTTCTCTACTTTGTGATCCTAATCCAGATGACCCCTTAGTACCAGATATTGCACAAATCTATAAATCAGACAAAGAAAAATACAACAGACATGCAAGAGAATGGACTCAGAAATATGCAATGTAA
modifications: CDS (16)..(456)

System: STAT6
Assay: Screening of full-length cDNA clones for promotion of STAT6 activation (luciferase reporter N4×8-luc)
Type: cell-based
Conditions: NIH3T3 cells cotransfected with N4×8-luc reporter and cDNA plasmid; 48 h culture, then mouse IL-4 0.5 ng/ml for 6 h
Description: As a preferable method, NIH3T3 cells are inoculated on 10% FBS (Fetal Bovine Serum)-containing IMDM medium in a 96-well cell culture plate to a final cell density of 1×10^4 cells/well, and cultured for 24 hours at 37° C., in the presence of 5% CO2. Then, the luciferase reporter plasmid N4×8-luc which has a STAT6 response sequence, and the expression vector are cotransfected into the cells in a well using FuGENE 6 (Roche). After 48 hours of culture at 37° C., in the presence of 5% CO2 mouse IL-4 (Immuno Biological Laboratories Co., Ltd.) is added to a final concentration of 0.5 ng/ml. After culturing for further 6 hours, promoting activity for STAT6 activation is then measured by measuring luciferase activity using a long term luciferase assay system, Picagene LT2.0 (Toyo Ink Mfg). For example, luciferase activity can be measured using PerkinElmer's Wallac ARVOTMST 1420 MULTILABEL COUNTER. The method for gene introduction by FuGENE6, and measurement of luciferase activity by Picagene LT2.0 can be performed respectively according to the attached protocols. In a method of gene introduction with a 96-well plate using FuGENE6, the amount of FuGENE6 per 1 well is suitably 0.3 to 0.5 μl, preferably 0.3 μl; the amount of N4×8-luc reporter plasmid is suitably 50 to 100 ng, preferably 100 ng; and the amount of expression vector is suitably 50 to 100 ng, preferably 100 ng. An ability (action) to promote STAT6 activation refers to an ability to increase the reporter activity (luciferase activity) relative to the control experiment (for cells into which the reporter gene and a null vector were introduced). Increase in reporter activity is preferably by a factor of 1.5 or more, more preferably by a factor of 3 or more, and still more preferably by a factor of 6 or more.
NIH3T3 cells (purchased from Dainippon Pharmaceutical) were grown to 1×10^4 cells/well in a 96 well plate for cell culture for 24 hours at 37° C. (in the presence of 5% CO2) using 10% FBS containing IMDM medium. Then, 100 ng of luciferase reporter plasmid N4×8-luc having a STAT6 response sequence and 2 μl of the full-length cDNA prepared in above Example 1.(3) were cotransfected into the cells in a well using FuGENE 6 (purchased from Roche) according to the manufacturer's protocol. The luciferase reporter plasmid N4×8-luc having the STAT6 response sequence was constructed as follows. […] 157, 2058-2065 (1996)], oligonucleotides having the following sequences were synthesized:
The synthesized oligonucleotides were dissolved in sterile water to be 1μg/μl, respectively, mixed in 10 μl lots, and adjusted the volume to 32 μl with sterile water. The solution was heated for 5 min at 90° C., and gradually cooled down to room temperature to prepare a double-stranded oligonucleotide solution. The solution was reacted with T4 polynucleotide kinase (Takara Shuzo) according to the attached manual, then the reaction product was purified in a usual manner. Separately, SV40 promoter region of pGL3-Promoter vector (Promega) was replaced by the HSV thymidine kinase promoter sequence (from −50 to +10) with Hind III site and BglII site to construct a vector tk-luc. The aforesaid double-stranded oligonucleotide fragments were inserted into the XhoI site of this tk-luc vector using T4 DNA ligase (GIBCO/BRL). The obtained clones were sequenced according to a usual method, and clones in which plural oligonucleotide fragments were inserted were selected. […] The four-interlinked DNA fragments were excised from the N4×4-luc with a XhoI and a BglII site and purified to be inserted into a BamHI and a XhoI site of pBluescript II KS+ (Stratagene). The four-interlinked DNA fragments were excised from this plasmid with KpnI and SpeI and inserted into a KpnI and a NheI site of N4×4-luc plasmid to finally obtain N4×8-luc.

Row | Molecule | Activity = (luciferase activity of the gene of each SEQ ID NO:)/(luciferase activity of pME18S-FL3)
1 | B1 | 11.7
2 | B2 | 14.7
3 | B3 | 17.0
4 | B4 | 13.0
